In the DeepSol protein solubility set:

Assay: soluble on expression in E. coli; label from the status in PepcDB or PDB records

Soluble on expression in E. coli, not soluble:
MGSDKIHHHHHHMLIEEIMKRNVVTIHEQTTIKEAYQTMILEKFRHLPVITKSKDVIGIVTDQDIRDASPSIFHQDEHQEDLQKPVSSIMTKDVITVHPLNSVAETARLLYENRISCLPVTEGEQLVGIVTDTDVLHTLVELMGAHQPSSQIYVRVENKAGQLADVAAIMKQRQMNIASVLVYPHREDERYKILAFRIQSMDPRGTISDLQSKGYHVLWPNIPGIAT
MLIQIDSNVLFANVDTLGNIVSTTTNGIGSAGKTTLDGHYSSISGFDQLGASHGAVIKGGIGSAMKTMQQLTEQVNWLKEALNSSRLAFSSQNNFVSRGMDIADEGGNVGGEEVVFPNRPDVVYEDFSFPQPVVQKASSIDELAAAFASTNDSEVEEAVATWKSLSEMATETSQDLRNVAAEVGEHNHGAVFDKAVERIGEIAANAESFAANASTMANHVGLMSQLKTMRMSDVLSAQQALSKIEDPMERKVLEEEFLSRLQSAIQSDVGQSVPVIRNLVTMRSTGGNSGQSIATGMETIAGNGKFSHTGLSSASGATLQPATMGQHPDNLGDFAAVNSRTGQSIDPFSLSTQQAGWTSPDFQPSAGGSSGLNPIKAPLTSAHSSMPASAQTVSTHPSSATGLGVTPIGPRADAMAMYPSANSKPHNSGLNGTSKIGGSSIAQLGASPQSGVSRSAAFGAAGTQSAHSARMSPMMGAPMGAAGSKKRGKTKSVTSSVEEDNNIAALLGESPAVVPGVIGSWVRG
MSDFLKDCFQKIGWEKDHVSFGDLPLFLKAMAYRFPFENRAVLAKENYKITKEELWRRLLKDQHGGLCYDLNGFLYFVLREAGFHVKLIRGTVYAGDQEGWALEGTHAAVWLSAENGDYLVDIGFGINLALQPIPLSGETVQSPVGSFRIKKEETEKGSYVLLMDKGEGWQIGYAFTLEESDLGDLDNMKDIIHSHEKSPFNKSLLASKLTPSGRMVMSERHFTIYENGGNIQKSDIGPSGFEEKLNTH
MGSDKIHHHHHHMNFKRLIIYEAFARAYPGEKGKKFDSLIKDLERLKGMGINTVWLMPIHPTGIEGRKGTLGSPYAIRDYYEIDPLIGTKDDFKRFVKRAHELNMYVLMDMVLNHAAADNVLVREHPEWFLRDEKGNPTRKVPDWTDIVDFDYSNGELRKYMINMMKYWVEEFDVDGFRCDVAGLVPLDFWLQARKELDPVKRLIWLSETHDPYMYQAFDITYDYDGYYKFRDFIEGRGSLREYVDFLRMQDHMYPRGYIKMRFLENHDQPRIAKFIEEDSLVHWIAFLFTFKGVPLVHNGQEYGLKEDVDIFNEYTLPFPMEENRISILHRKLAHYRYGTSVFSEGEMLFVKNDQPEKVISYLWRYENRYILCMLNPLLENTKVTLDFSGIWESACIHSKNVFNDEIVRVPVKNSRATVEIGKEPLILSFVLY
MSLRGALAGMLALGCLTTSTLAFERWTLEARGKSGYDAPKLEWVEGKTINEIKNPTIQYALPKFEGDVFWDTINAKPVVPDSIYGEFVQYGYELFVNTQAVIGPEVADPNMRYSGNNLSCNSCHLGAGTAKYAAPLVDNHANFPQYRNRENSLGTMAARVNGCMQRSMNGYPLPAEGKEMKAFLAYIHWLGQGIPVGAKIEGRSLKTVDRKMVQQNAADVKNGAEVYARDCASCHGAEGEGLRRESKDGKPAGYEFPPLWGSDDTYNTGAGMYRTLKAADFIKSTMPKGAPTLSDKDAYDVAAFINDYSHYRTVKLNRQNDFVDPKVRVPDHDQPGPYGPEGSYIFPDEGKTQMDYKVGPYKGIIKQKPAAKEGHHHHHH
GPGSMNPSKVVQGTPNSVEWDPRNPPDTPFFTETTAVERSRIPTEYIRRMEEATRLYAMHREGRHALHTACQIASWTVATQCCWLCVGVWLTVRGYRHANPAHSFVSGMTSNKVFCRVFTPIPVLGLTMMGVTAAQLPRDVKVLITAREGRMEEENCMKSAFDQCMAALAEGRLAMGKEGILTA
MAHHHHHHMKYMPQRPCIGICQGCWTVQLGGVNQYIQIWRYENLKHRYDCRKQVEQDQEWLRTYVKPADDMMISKSNTLLRLVYREGNASTQSYKYLMQVSPHKEVELSGPSATLAATFQVIVGEEEGKYIHLVKGHKLDDVIPVTPTLGCSSKIMGPVRWSSTMNCLWR

Soluble on expression in E. coli, soluble:
DIQMTQSPASLSASVGETVTITCRASENIYSYLAWYQQKQGKSPQLLVYNAKTLAEGVPSRFSGSGSGTQFSLKINSLQPEDFGSYYCQHHYGTPFTFGSGTKLEIKRHHHHHH
MSLILVYSTFPNEEKALEIGRKLLEKRLIACFNAFEIRSGYWWKGEIVQDKEWAAIFKTTEEKEKELYEELRKLHPYETPAIFTLKVENVLTEYMNWLRESVLEGGSHHHHHH
